Experimental data reported in the Human Domainome abundance scans (Beltran et al. 2025).

B1: Probable E3 ubiquitin-protein ligase MID2, residues 191 to 235; numbered along this chain, Q9UJV3 (parent)
chain: RGITCLDHENEKVNMYCVSDDQLICALCKLVGRHRDHQVASLNDR
B2: Zinc finger homeobox protein 3, residues 2244 to 2299; numbered along this chain, Q15911 (parent)
chain: SSRTRFTDYQLRVLQDFFDANAYPKDDEFEQLSNLLNLPTRVIVVWFQNARQKARK

Variants of: B1
Experiment: abundance fitness (aPCA) (normalised: wild type 0, dead -1); higher = more abundant; growth selection in yeast, the domain comes from the species named
Conditions: Homo sapiens

Abundance fitness, by site and new letter:
S41: C -0.071, K -0.102, D 0.087, T -0.001, R -0.039, N 0.1, F -0.385, W -0.458, Y -0.502, I -0.481, V -0.298, M -0.222, H -0.135, L -0.157, G -0.021, P 0.061, A -0.08
Q38: L -0.259, W -0.369, R -0.002, I -0.357, P -0.092, M -0.25, T -0.195, Y -0.16, N -0.104, V 0.005
A40: K -0.138, G 0.003, T -0.068, M -0.216, E 0.072, Q 0.09, F -0.176, D 0.043, R 0.014, Y -0.2, H -0.296, P -0.415, S 0.063, C -0.063, N -0.082, W -0.155
V39: G -0.191, E -0.143, C -0.014, K -0.449, S 0.082, Y -0.335, P -0.249, I -0.153, Q -0.081, W -0.23, R -0.319, M -0.129, H 0.067, L -0.079, D -0.258, T 0.06
L42: P -0.363, E 0.091, Q -0.134, F -0.133, Y -0.127, A 0.118, K -0.054, D -0.046, T -0.096, V -0.016, N 0.045, W -0.198, G -0.071, M -0.031, S 0.046, R -0.095, C 0.269
R45: A 0.178, D -0.087, H 0.256, T -0.04, L -0.253, Q 0.033, S 0.084, G 0.15, I -0.033, K 0.025, W -0.164, E 0.276, F 0.151, M -0.201, P 0.041, C 0.018, V -0.105
D44: Y -0.285, W -0.472, G -0.075, P -0.061, T -0.122, Q -0.234, E 0.003, F -0.422, V -0.211, S -0.067, M -0.187, L -0.427, A -0.152, K -0.175, C -0.452
N43: P 0.062, V -0.042, S -0.022, E 0.192, D -0.036, W -0.405, Q -0.043, T 0.008, R -0.154, H -0.016, I -0.275, A 0.1, K 0.164, M -0.252, G -0.011, L -0.126, C -0.097

Variants of: B2
Experiment: as above
Conditions: Homo sapiens

Abundance fitness: each site, then its substitutions
D8: N -0.237, H -0.269, I -0.641, V -0.405, M -0.202, G -0.145, T -0.158, R -0.173, K -0.027, F -0.591, L -0.332, W -0.401, Q -0.035, E -0.138, C -0.022, P -0.235, A -0.123
L11: Y -0.404, F -0.364, I 0.055, S 0.062, E 0.038, N 0.007, W -0.361, K -0.146, V 0.015, C -0.743, H -0.203, M 0.204, G -0.171, R -0.141, T 0.172, A -0.181
T4: S 0.024, R -0.388, E -0.357, L -0.116, G -0.394, K -0.661, V -0.634, M 0.304, D 0.117, F 0.03, H -0.072, P -0.154, C -0.632, Q -0.08, I 0.032, W -0.656, A -0.883, N 0.211, Y -0.198
Q10: R -0.724, G -0.863, A -0.649, C -0.764, H -0.563, W -0.964, D -0.631, P -0.923, T -0.714, M -0.216, I -0.769, F -0.569, L -0.919, E -0.59, K -0.924, N -0.76, S -0.445
R5: C 0.323, N 0.305, L 0.197, S 0.2, P 0.026, W 0.234, Y 0.344, M 0.478, K 0.29, G 0.19, D 0.423, V 0.362, H 0.218, I 0.323, T 0.274, F 0.234, E 0.321, Q 0.092, A 0.213
S1: L -0.179, W -0.939, T 0.003, N 0.158, V -0.158, A -0.047, P -0.636, F -0.357, I 0.252, R -0.097, M -0.277, G 0.256, C 0.079, E 0.181, D 0.137
F6: P -0.774, Y -0.06, N -0.52, R -0.703, T -0.433, E -0.657, G -0.633, C -0.345, I -0.164, V -0.21, A -0.678, H -0.672, K -0.408, L -0.321, M 0.094
T7: N -0.565, G -0.487, P -0.84, D -0.258, V -0.614, M -0.46, A -0.289, I -0.586, F -0.725, K -0.272, C -0.563, H -0.665, R -0.556, S -0.186, L -0.363, Y -0.446
R3: F 0.387, C 0.467, G 0.281, L 0.439, T 0.4, Y 0.301, P 0.17, I 0.108, H 0.368, A 0.388, S 0.386, E 0.038, M 0.308, W 0.094, D 0.505, N 0.43, V 0.392
Y9: N -0.097, I -0.383, K 0.162, Q 0.211, H -0.129, M -0.005, L -0.216, A 0.083, E -0.007, P -0.195, S 0.053, D 0.002, W -0.217, G -0.063, T -0.135
V13: A -0.018, G -0.339, D -0.692, E -0.237, C -0.276, F -0.291
R12: K 0.169, Q 0.045, D 0.024, P -0.794, C -0.531, W -0.504, E -0.422, A -0.455, I -0.312, S -0.149, F -0.738, N 0.035, L -0.221, V -0.466, M -0.378, T -0.136, H 0.051, G -0.238, Y -0.524
S2: L 0.026, Y 0.097, E 0.182, Q -0.093, M 0.321, R -0.299, K -0.194, F -0.214, T 0.214, N 0.007, V 0.042, I 0.393, C -0.118, D 0.21, G -0.006, W -0.255, H -0.043, A -0.353
